We go through 3 molecules from patent publication US20250376539A1 (KIRA PHARMACEUTICALS SUZHOU, published 2025).

The target in experiment [1] is T1, recombinant cynomolgus (cyno) complement C2 (XP_005553508.1), C-terminal 6His-tag, made in house (CHO cell … (cynomolgus monkey (Macaca fascicularis), UniProt P06681 21-752 (human entry))).
T1 construct: also called cyno C2; Cyno C2
T1 chain: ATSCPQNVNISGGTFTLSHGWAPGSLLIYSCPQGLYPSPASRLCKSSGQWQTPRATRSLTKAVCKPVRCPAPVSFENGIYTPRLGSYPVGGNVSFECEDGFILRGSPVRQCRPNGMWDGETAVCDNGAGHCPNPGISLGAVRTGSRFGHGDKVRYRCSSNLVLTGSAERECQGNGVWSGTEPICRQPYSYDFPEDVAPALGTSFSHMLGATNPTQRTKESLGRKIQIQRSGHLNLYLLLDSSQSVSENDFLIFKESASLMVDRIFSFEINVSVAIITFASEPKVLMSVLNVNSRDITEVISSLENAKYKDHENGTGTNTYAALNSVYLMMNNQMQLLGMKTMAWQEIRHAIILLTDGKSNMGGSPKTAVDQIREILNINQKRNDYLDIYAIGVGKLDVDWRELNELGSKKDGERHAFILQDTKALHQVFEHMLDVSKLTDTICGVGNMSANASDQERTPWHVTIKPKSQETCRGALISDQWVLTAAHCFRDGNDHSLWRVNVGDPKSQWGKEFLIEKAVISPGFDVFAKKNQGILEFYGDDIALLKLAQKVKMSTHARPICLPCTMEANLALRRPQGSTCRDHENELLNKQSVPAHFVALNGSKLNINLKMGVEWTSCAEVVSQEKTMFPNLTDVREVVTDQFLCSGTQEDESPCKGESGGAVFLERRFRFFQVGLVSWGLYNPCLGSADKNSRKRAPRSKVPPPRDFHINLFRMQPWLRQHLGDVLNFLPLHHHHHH
Kind of experiment: ELISA on cyno C2, OD450nm against log Ab conc. (nmol/L).

The target of experiment [2] is T2, recombinant cyno C2a, C-terminal 6His-tag, made in house (CHO cell expression) (cynomolgus monkey, UniProt P06681 244-752 (human entry)).
T2 chain: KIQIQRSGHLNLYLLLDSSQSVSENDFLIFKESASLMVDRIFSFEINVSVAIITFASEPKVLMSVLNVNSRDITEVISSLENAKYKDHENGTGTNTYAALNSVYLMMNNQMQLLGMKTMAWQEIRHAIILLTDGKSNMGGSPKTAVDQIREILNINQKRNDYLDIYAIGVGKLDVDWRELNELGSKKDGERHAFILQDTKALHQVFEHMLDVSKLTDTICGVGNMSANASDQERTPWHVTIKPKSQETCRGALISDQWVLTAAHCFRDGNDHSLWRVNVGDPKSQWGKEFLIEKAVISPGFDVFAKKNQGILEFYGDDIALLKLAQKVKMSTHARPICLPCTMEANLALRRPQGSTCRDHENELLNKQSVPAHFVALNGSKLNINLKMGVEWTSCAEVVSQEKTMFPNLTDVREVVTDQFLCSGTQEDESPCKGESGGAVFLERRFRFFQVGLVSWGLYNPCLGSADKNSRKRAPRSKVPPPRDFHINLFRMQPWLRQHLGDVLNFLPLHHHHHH
Kind of experiment: ELISA.

Experiment [3] deals with T3, recombinant human C2a, C-terminal 6His-tag, made in house (CHO cell expression) (human, UniProt P06681 244-752).
T3 sequence: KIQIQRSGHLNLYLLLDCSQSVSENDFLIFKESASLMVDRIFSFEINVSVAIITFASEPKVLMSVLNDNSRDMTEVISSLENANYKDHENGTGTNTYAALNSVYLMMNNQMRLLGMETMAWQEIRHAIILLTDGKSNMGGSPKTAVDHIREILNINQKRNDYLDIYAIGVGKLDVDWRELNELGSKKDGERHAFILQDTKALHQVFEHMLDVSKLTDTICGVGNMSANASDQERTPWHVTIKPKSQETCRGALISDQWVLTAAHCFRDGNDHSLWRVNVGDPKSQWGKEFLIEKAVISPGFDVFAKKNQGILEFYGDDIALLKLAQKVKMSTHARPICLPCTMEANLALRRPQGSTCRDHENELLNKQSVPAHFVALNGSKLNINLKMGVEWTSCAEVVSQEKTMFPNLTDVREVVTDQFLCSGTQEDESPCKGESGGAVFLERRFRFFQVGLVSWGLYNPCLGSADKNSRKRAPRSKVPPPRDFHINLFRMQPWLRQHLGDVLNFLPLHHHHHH
Kind of experiment: ELISA.

For experiment [4], the target named is T4, recombinant human complement C2 (NP_000054.2), C-terminal 6His-tag, made in house (CHO cell expression) (human, UniProt P06681 21-752).
T4 construct: a linker before the tag is not described; also called human C2; Human C2
T4 sequence: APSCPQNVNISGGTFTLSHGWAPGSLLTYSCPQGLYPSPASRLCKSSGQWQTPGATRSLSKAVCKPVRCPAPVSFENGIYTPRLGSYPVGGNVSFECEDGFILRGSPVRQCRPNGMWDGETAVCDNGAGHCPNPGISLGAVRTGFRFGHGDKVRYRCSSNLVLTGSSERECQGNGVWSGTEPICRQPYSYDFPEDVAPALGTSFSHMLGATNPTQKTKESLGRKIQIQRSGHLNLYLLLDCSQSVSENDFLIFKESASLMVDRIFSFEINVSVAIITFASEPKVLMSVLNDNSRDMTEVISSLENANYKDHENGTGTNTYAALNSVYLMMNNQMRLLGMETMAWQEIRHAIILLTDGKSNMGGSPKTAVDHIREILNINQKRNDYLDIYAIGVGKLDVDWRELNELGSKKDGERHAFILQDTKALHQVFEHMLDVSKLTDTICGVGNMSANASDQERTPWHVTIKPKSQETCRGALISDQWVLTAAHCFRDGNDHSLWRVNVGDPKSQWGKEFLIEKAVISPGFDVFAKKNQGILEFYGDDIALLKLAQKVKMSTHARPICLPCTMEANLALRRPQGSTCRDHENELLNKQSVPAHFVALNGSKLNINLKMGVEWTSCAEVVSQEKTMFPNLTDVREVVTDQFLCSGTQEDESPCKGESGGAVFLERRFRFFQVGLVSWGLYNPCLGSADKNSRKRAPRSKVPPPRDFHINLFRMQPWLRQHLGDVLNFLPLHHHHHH
Kind of experiment: ELISA.

In experiment [5] the target is T4, recombinant human complement C2 …. Kind of experiment: kinetic binding measurement, table 'Human C2 binding affinity' with sensorgrams below it (assay not named on the sheet); lot 20211215P05.
The target is the same in experiment [6]. Kind of experiment: kinetic binding measurement, table 'Human C2 binding affinity' with sensorgrams below it (assay not named on the sheet); lot 20211228P03.
Experiment [7] has as its target T1, recombinant cynomolgus (cyno) …. Kind of experiment: binding kinetics (BLI presumed).
For experiment [8], the target named is T4, recombinant human complement C2 …. Kind of experiment: BLI (Gator), antibody on probe; 600 s association at pH 7.4, 600 s dissociation at pH 7.4. As for the experimental part:
(§1) The histidine mutant constructs in Table 4 were tested for their pH-dependent dissociation from human C2. Probe-immobilized anti-C2 antibodies were incubated with C2 at pH 7.4 for 600s, followed by a 600s dissociation period in K Buffer at pH 7.4 or pH 5.8. The data were processed and analyzed by the Gator evaluation software.
(§2) Non-fusion mAb were used for comparison.

Experiment [9] has as its target T1, recombinant cynomolgus (cyno) …. Described as above. How it is done: as §1, §2
In experiment [10] the target is T4, recombinant human complement C2 …. Kind of experiment: BLI (Gator); ratio of dissociation at pH 5.8 to pH 7.4. As for the experimental part:
as §1, §2

The target of experiment [11] is T1, recombinant cynomolgus (cyno) …. Described as above. How it is done:
as §1, §2

In experiment [12] the target is T4, recombinant human complement C2 …. Kind of experiment: BLI (Gator), antibody on probe; 600 s association at pH 7.4, 600 s dissociation at pH 5.8. As for the experimental part:
as §1, §2

The target of experiment [13] is T1, recombinant cynomolgus (cyno) …. The description is as above. As for the experimental part:
as §1, §2

Experiment [14] has as its target T4, recombinant human complement C2 …. Kind of experiment: binding kinetics, neutral pH (BLI presumed).

B1: anti-C2 antibody 149.46 (antibody, IgG4, V domains shown)
VH: QVQLQQSGPGLVKPSQPLSLTCAISGDSVSSNSATWSWIRQSPSRGLEWLGRTYYRSKWYHDYAVFVKSRMTINPDTSKNQFSLQLNSVTPEDTAVYYCARGGMPASDIPHFDNWGQGILVTVSS
VL: SYELTQPPSLSVSPGQTASITCSGHKLGDKYACWYQQKPGQSPVLVIYQDNKRPSGIPERFSGSNSGNTATLTISGTQALDEADYYCQAWDSITYVFGTGTKVTVL
notes: Recombinant
Turning to B1, the binding result in experiment [1] is listed as “binds”. Besides, the EC50 in [2] was found to be 0.042 nM; in experiment [3], 0.0457 nM; in experiment [4] it was 0.165 nM.

B2: 3.2pHGL-IgG1-LALA-LS (3.2 pH-IgG1-LALA-LS derived from germline) (antibody, V domains shown)
VH: EVQLLESGGGLVQPGGSLRLSCAASGFTFRHYAMSWVRQAPGKGLEWVSLISGSGASTHYADSVKGRFTISRDNSKNTLYLQMNSLRAEDTAVYYCAKDSLAVAGSEYFQHWGQGTLVTVSS
VL: SYVLTQPPSVSVAPGQTARITCGHNYFGGKSVHWYQQKPGQAPVLVVYDDSDRPSGIPERFSGSNSGNTATLTISRVEAGDEADYYCQVYDTSSDHWVFGGGTKLTVLG
notes: Heavy chain put together from the named parts
On to B2, for which, in experiment [5], the Kd came out at 0.149 nM, the koff turned out to be 4.58e-05 s⁻¹ and the kon was determined as 309000 M⁻¹ s⁻¹. In addition, in experiment [6], the Kd stood at 0.101 nM, the koff turned out to be 3.33e-05 s⁻¹ and the kon amounted to 330000 M⁻¹ s⁻¹.

B3: 3.2 H2-10 (a representative pH dependent 3.2 comprising a histidine mutation in the heavy chain CDR2) (antibody, V domains shown)
VH: EVQLLESGGGLVQPGGSLRLSCAASGFTFRHYAMSWVRQAPGKGLEWVSLISGSGASTHYADSVKGRFTISRDNSENMLYLQMNSLRAEDTAVYYCAKDSLAVAGSEYFQHWGQGTLVTVSS
VL: SYVLTQAPSVSVAPGQTARITCGGNYFGGKSVHWYQQRPGQAPVLVVYDDSDRPSGIPERFSGSKSGNTATLAISRVEAGDEAAYYCQVYDTSSDHWVFGGGTKLTVL
In the case of B3, the Kd turned out to be 0.222 nM in experiment [7] and 0.172 nM in experiment [14]. For the same molecule, the koff amounted to 9.84e-05 s⁻¹ in experiment [7] and 6.05e-05 s⁻¹ in experiment [14]. Also, the kon was found to be 442000 M⁻¹ s⁻¹ in experiment [7] and 353000 M⁻¹ s⁻¹ in [14]. For the same molecule, the “Dissociation (%) pH 7.4” value in experiment [8] stood at 6.91%; in experiment [9], 8.35%. Also, the “Fold dissociation pH 5.8/pH 7.4” value in [10] was 8.2 fold; in [11], 7.53 fold. In addition, the “Dissociation (%) pH 5.8” value was determined as 56.7% in experiment [12] and 62.9% in experiment [13].
